The nature of assay [1]: Chromogenic substrate assay, protease activity of the purified recombinant cathepsins. The format is biochemical. The conditions noted are these: FIG. 1; protease 0.84 μM. Here is the method:
The concentrations of all the three proteases are at 0.84 μM and that of E64, a non-selective irreversible inhibitor of cysteine proteases, is at 2 μM […].
Papain served as a positive control cysteine protease. The cathepsin S and K were further evaluated for their capacity to activate PAR receptors as noted below.

The next assay has as its system PAR1. In words: PAR activation by cytoplasmic calcium release in transfected HeLa cells (Fura-2 ratiometric imaging), PAR1. The conditions noted are these: HeLa cells transfected with PAR1. The format is cell-based, human. On the procedure: (§1) The responses to PAR 2 and 4 were blocked by the protease inhibitor E64 (10 μM) as a control). Other controls included vector alone and vector encoding the PAR1 receptor. Cathepsin S was added as indicated. The averages from at least three separate experiments were then combined +/−SD.
(§2) PAR activation observed by cytoplasmic calcium release—The four human PAR cDNAs were obtained from commercial sources and cloned into the pcDNA3.1(−) vector (INVITROGEN™ Inc.). HeLa cells were transfected with 10 μg of vector cDNA using Lipofectamine 2000 (INVITROGEN™ Inc.) and cultured for two days in 96-well glass bottom plates at 30,000 cells/well. Cells were loaded with Fura-2 as follows. The medium was aspirated and replaced with 100 μl of complete DMEM containing 2 μM Fura-2 (INVITROGEN™ Inc.) and kept at room temperature in the dark for 1 hr. The medium was again aspirated and each well received 90 μl of HEPES buffered saline (20 mM HEPES, 115 mM NaCl, 5.4 mM KCl, 2 mM CaCl2, 0.8 mM MgCl2, 13.8 mM glucose, pH 7.4). Plates were observed using a Zeiss Axiovert 200M microscope equipped with a filter wheel for monitoring excitation at 340 and 380 nm. Axiovision software, version 4.6 was used to analyze ratiometric calcium imaging of the cells. Ten μl of a 21 μM solution of recombinant human cathepsin S were applied approximately 20 seconds after the start of excitation. […]

Another assay relates to PAR4. In words: PAR activation by cytoplasmic calcium release in transfected HeLa cells (Fura-2 ratiometric imaging), PAR4. It is filed as cell-based, human. On the procedure:
as §1
(§3) Salmon sperm (SS) DNA is used as control. The averages from at least three separate experiments were then combined +/−SD.
as §2, with “cells.” for “cells. Ten μl of a 21 μM solution of recombinant human cathepsin S were applied approximately 20 seconds after the start of excitation.”

A further assay deals with human volunteers. The assay can be described thus: Itch evoked by inactivated cowhage spicules reconstituted with cathepsin S, inserted into skin. The format is in vivo. On the procedure:
Recombinant cathepsin S also evokes itch in human volunteers. In this experiment, native itch-evoking spicules from the plant Mucuna pruriens were inactivated by autoclaving for 1 hour and reconstituted with recombinant cathepsin S. Typically, 50 mg of inactivated spicules were mixed with 0.4 ml of 1 mg of recombinant cathepsin S in 0.1M NaCl with 0.01 M L-cysteine in a 2 ml microfuge tube, vortexed, dried in a Speed-vac for 2 hours at room temperature, vortexed again and transferred to a new tube. This second vortex step allowed for precipitated salt to be separated from the spicules. These spicules were then considered ‘reconstituted’ with the cathepsin S. Individual spicules were then superficially inserted approximately 0.2 mm into the skin of volunteers who rated the subsequent itch as “very strong”. The mean perceived intensity of itch and nociceptive sensation evoked by a single inactivated spicule reconstituted with cathepsin S on nine human volunteers is shown in FIG. 3A. The mean perceived intensity is similar with that for itch and nociceptive sensation evoked by a single spicule of native cowhage for the same nine volunteers.

The test system of the next assay is PAR2. The assay can be described thus: PAR activation by cytoplasmic calcium release in transfected HeLa cells (Fura-2 ratiometric imaging), PAR2. It is filed as cell-based, human. On the procedure:
as §1, §3
as §2, with “cells.” for “cells. Ten μl of a 21 μM solution of recombinant human cathepsin S were applied approximately 20 seconds after the start of excitation.”

Setting [2] is: cathepsin S 30 nM versus mucunain.

B1: cathepsin S: recombinant human cysteine protease, expressed in E. coli as zymogen and cleaved to active enzyme (protein)
chain: LPDSVDWREKGCVTEVKYQGSCGACWAFSAVGALEAQLKLKTGKLVSLSAQNLVDCSTEKYGNKGCNGGFMTTAFQYIIDNKGIDSDASYPYKAMDQKCQYDSKYRAATCSKYTELPYGREDVLKEAVANKGPVSVGVDARHPSFFLYRSGVYYEPSCTQNVNHGVLVVGYGDLNGKEYWLVKNSWGHNFGEEGYIRMARNKGNHCGIASFPSYPEI
With B1, the “capacity to cleave the chromogenic substrate Z-Phe-Arg-pNA” value in assay [1] was “had protease activity”. The “activation of PAR1 (calcium flux)” value in the assay on PAR1 is listed as “no activation”. The “concentration at which strong activation of PAR4 occurred (calcium flux)” value in the assay on PAR4 (HeLa cells transfected with PAR4) is reported as 30 nM. For the same molecule, in the assay on PAR4 (setting [2]), the “activating concentration relative to that needed for stimulation via mucunain, PAR4” value is given as “at least ten-fold less”. In addition, in the assay on human volunteers (nine human volunteers, FIG. 3A versus 3B), the “mean perceived intensity of itch and nociceptive sensation compared with a single spicule of native cowhage” value is “similar”. Further, the “itch rating by volunteers” value with human volunteers (single reconstituted spicule inserted approximately 0.2 mm into skin) was “very strong”. The “concentration at which strong activation of PAR2 occurred (calcium flux)” value in the assay on PAR2 (HeLa cells transfected with PAR2) was 30 nM. For the same molecule, in the assay with PAR2 (setting [2]), the “activating concentration relative to that needed for stimulation via mucunain, PAR2” value is given as “at least ten-fold less”.

B2: cathepsin K: recombinant human cysteine protease, expressed in E. coli as zymogen and cleaved to active enzyme (protein)
chain: APDSVDYRKKGYVTPVKNQGQCGSCWAFSSVGALEGQLKKKTGKLLNLSPQNLVDCVSENDGCGGGYMTNAFQYVQKNRGIDSEDAYPYVGQEESCMYNPTGKAAKCRGYREIPEGNEKALKRAVARVGPVSVAIDASLTSFQFYSKGVYYDESCNSDNLNHAVLAVGYGIQKGNKHWIIKNSWGENWGNKGYILMARNKNNACGIANLASFPKM
As to B2, the “capacity to cleave the chromogenic substrate Z-Phe-Arg-pNA” value in assay [1] is on record as “had protease activity”.

The values above are taken from patent US8852569B2, “Prevention and treatment of itch with cysteine protease inhibition” (The General Hospital Corporation, priority 2008, dated 2014).
